The target of data set [1] is T1, A3A(E72A) (Homo sapiens, UniProt P31941 1-199, E72A). As to the kind of experiment: fluorescence anisotropy; pH 5.5; 50 mM MES pH 6.0, 100 mM NaCl, 0.5 mM TCEP, room temperature overnight, 10 nM TAMRA-oligo; competition with 300 nM A3A(E72A); pH series: acetate 4.0-5.0, MES 5.5-6.5, HEPES 7.0-8.0, Tris 8.5-9.0. As to conditions: protein: recombinant; tags: His6-SUMO removed by Ulp1 (untagged); label: 5' TAMRA. A general note: In fluorescence polarisation assays a small probe gives low polarisation when free and higher when bound to something large.
T1 sequence (P31941 whole entry E72A): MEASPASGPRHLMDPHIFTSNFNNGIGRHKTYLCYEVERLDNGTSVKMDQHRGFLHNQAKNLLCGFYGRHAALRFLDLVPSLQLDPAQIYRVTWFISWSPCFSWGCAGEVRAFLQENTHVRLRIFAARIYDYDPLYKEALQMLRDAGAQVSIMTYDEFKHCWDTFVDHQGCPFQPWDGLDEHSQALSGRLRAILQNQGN

The target in data set [2] is T1, A3A(E72A). The data set is described as follows: fluorescence anisotropy; pH 6.0; 50 mM MES pH 6.0, 100 mM NaCl, 0.5 mM TCEP, room temperature overnight, 10 nM TAMRA-oligo; competition with 300 nM A3A(E72A); pH series: acetate 4.0-5.0, MES 5.5-6.5, HEPES 7.0-8.0, Tris 8.5-9.0. As to conditions: protein: recombinant; tags: His6-SUMO removed by Ulp1 (untagged); label: 5' TAMRA; hairpin.

In the case of AAAATTCAAAAAA (ssDNA) [Poly A-TTC (pH series, 4A-TTC-6A)], the Kd (as a rule, a measure of binding affinity in units of concentration) with A3A(E72A) [1] came out at 68 ± 3 nM.
Take GCCATCAAAAGATGGG (structured_DNA) [Hairpin-AAA]: the Kd with A3A(E72A) [2] stood at 676 ± 399 nM.

The values above are taken from article PMC5951847, “Substrate sequence selectivity of APOBEC3A implicates intra-DNA interactions”.
